# Reference: article PMC10036536, “Optimizing human α-galactosidase for treatment of Fabry disease” (Scientific Reports, 2023)
# B1: recombinant human α-galactosidase A (GLA) (enzyme, UniProt P06280 32-429, looked up)
# chain: LDNGLARTPTMGWLHWERFMCNLDCQEEPDSCISEKLFMEMAELMVSEGWKDAGYEYLCIDDCWMAPQRDSEGRLQADPQRFPHGIRQLANYVHSKGLKLGIYADVGNKTCAGFPGSFGYYDIDAQTFADWGVDLLKFDGCYCDSLENLADGYKHMSLALNRTGRSIVYSCEWPLYMWPFQKPNYTEIRQYCNHWRNFADIDDSWKSIKSILDWTSFNQERIVDVAGPGGWNDPDMLVIGNFGLSWNQQVTQMALWAIMAAPLFMSNDLRHISPQAKALLQDKDVIAINQDPLGKQGYQLRQGDNFEVWERPLSGLAWAVAMINRQEIGGPRSYTIAVASLGKGVACNPACFITQLLPVKRKLGFYEWTSRLRSHINPTGTVLLQLENTMQMSLKDLL
# notes: α-galactosidase A, human, UniProt P06280; The methods say fractions of the homodimer were pooled; also called rhGLA
# Molecular target: the molecule itself
# Experiment: SEC; protein eluted from concanavalin A-Sepharose; Superdex 200 PG 26/60, 2.4 mM Na2HPO4, 17.6 mM NaH2PO4 (pH 6.0), 150 mM NaCl, 0.02% Tween-20
protein,measurement,value
B1,stoichiometry N,2
